This assay addresses DNA polymerase β (1–335 amino acids), as used in SEC and in the repair assays (UniProt P06746 1-335). Briefly: cell-based or functional assay.

B1: LIG1▵N-terminal (262–919 amino acids) (domain or fragment)
chain: DPSGYNPAKNNYHPVEDACWKPGQKVPYLAVARTFEKIEEVSARLRMVETLSNLLRSVVALSPPDLLPVLYLSLNHLGPPQQGLELGVGDGVLLKAVAQATGRQLESVRAEAAEKGDVGLVAENSRSTQRLMLPPPPLTASGVFSKFRDIARLTGSASTAKKIDIIKGLFVACRHSEARFIARSLSGRLRLGLAEQSVLAALSQAVSLTPPGQEFPPAMVDAGKGKTAEARKTWLEEQGMILKQTFCEVPDLDRIIPVLLEHGLERLPEHCKLSPGIPLKPMLAHPTRGISEVLKRFEEAAFTCEYKYDGQRAQIHALEGGEVKIFSRNQEDNTGKYPDIISRIPKIKLPSVTSFILDTEAVAWDREKKQIQPFQVLTTRKRKEVDASEIQVQVCLYAFDLIYLNGESLVREPLSRRRQLLRENFVETEGEFVFATSLDTKDIEQIAEFLEQSVKDSCEGLMVKTLDVDATYEIAKRSHNWLKLKKDYLDGVGDTLDLVVIGAYLGRGKRAGRYGGFLLASYDEDSEELQAICKLGTGFSDEELEEHHQSLKALVLPSPRPYVRIDGAVIPDHWLDPSAVWEVKCADLSLSPIYPAARGLVDSDKGISLRFPRFIRVREDKQPEQATTSAQVACLYRKQSQIQNQQGEDSGSDPEDTY
For B1, the “amount of ligation products after polβ dGTP:C insertion in the coupled assay, absence against presence of the N-terminal region of LIG1, earlier time points (10-60 s)” value is around 20 fold.

These data come from article PMC11176775, “Impact of DNA ligase 1 and IIIα interactions with APE1 and polβ on the efficiency of base excision repair pathway at the downstream steps” (The Journal of Biological Chemistry, 2024).
